From the supplement of paper PMC9112550, “Optimization of the antimicrobial peptide Bac7 by deep mutational scanning” (BMC Biology, 2022) come the findings set out here.
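Note: peptides expressed intracellularly from a pBAD plasmid library in pooled LB shake-flask culture, induced with 0.3% L-arabinose, DNA abundance read by NGS, three biological replicates, DESeq2 with apeglm shrinkage.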

The subject of the data set is Escherichia coli TOP10. The data set is described as follows: shrunken log2 fold change of peptide-encoding DNA abundance (4.5 h post-induction vs induction); higher = less antimicrobial activity (less host growth inhibition). To be noted: time post-induction: 4.5 h; library: site-saturation at positions 5, 18, 19, 20.
In the case of RRIRKRPPRLPRPRPRPQFDPRP, the “shrunken log2 fold change” value was -0.0088.
RRIRFRPPRLPRPRPRPQNVPRP: the “shrunken log2 fold change” value is -0.16.
Regarding RRIRIRPPRLPRPRPRPYKGPRP, the “shrunken log2 fold change” value is -0.018.
For RRIRMRPPRLPRPRPRPEWNPRP, the “shrunken log2 fold change” value was determined as 0.406.
Take RRIRHRPPRLPRPRPRPVFVPRP: the “shrunken log2 fold change” value is -0.182.
For RRIRFRPPRLPRPRPRPFHPPRP, the “shrunken log2 fold change” value was determined as 0.039.
For RRIRKRPPRLPRPRPRPEYQPRP, the “shrunken log2 fold change” value was 0.0313.
Then RRIRFRPPRLPRPRPRPPALPRP, with 0.509.
As for RRIRIRPPRLPRPRPRPKERPRP, the “shrunken log2 fold change” value is -0.00236.
Then RRIRCRPPRLPRPRPRPDLIPRP, with -0.109; and RRIRLRPPRLPRPRPRPEFDPRP, with 0.31; and RRIRKRPPRLPRPRPRPPHCPRP, with 1.19.
Regarding RRIRVRPPRLPRPRPRPIMTPRP, the “shrunken log2 fold change” value is -0.359.
As for RRIRERPPRLPRPRPRPIMIPRP, the “shrunken log2 fold change” value was -0.246.
Consider RRIRSRPPRLPRPRPRPMCRPRP, for which the “shrunken log2 fold change” value was -0.147.
As for RRIRKRPPRLPRPRPRPACGPRP, the “shrunken log2 fold change” value came out at 0.845.
Turning to RRIRSRPPRLPRPRPRPVIMPRP, the “shrunken log2 fold change” value is -0.36.
Turning to RRIRQRPPRLPRPRPRPISRPRP, the “shrunken log2 fold change” value is -0.0404.
RRIRPRPPRLPRPRPRPFNSPRP: the “shrunken log2 fold change” value is -0.764.
Then RRIRCRPPRLPRPRPRPVEFPRP, with -0.05; and RRIRGRPPRLPRPRPRPNPNPRP, with 0.215.
On to RRIRRRPPRLPRPRPRPFTDPRP, for which the “shrunken log2 fold change” value is -0.0197.
As for RRIRIRPPRLPRPRPRPGYQPRP, the “shrunken log2 fold change” value is -0.0481.
On to RRIRFRPPRLPRPRPRPTKVPRP, for which the “shrunken log2 fold change” value was -0.157.
Regarding RRIRCRPPRLPRPRPRPCPKPRP, the “shrunken log2 fold change” value is -0.0654.
As for RRIRHRPPRLPRPRPRPFGHPRP, the “shrunken log2 fold change” value is -0.233.
Consider RRIRIRPPRLPRPRPRPNGIPRP, for which the “shrunken log2 fold change” value is -0.337.
On to RRIRTRPPRLPRPRPRPSPGPRP, for which the “shrunken log2 fold change” value is 0.103.
RRIRLRPPRLPRPRPRPAGRPRP: the “shrunken log2 fold change” value amounted to 0.0831.
For RRIRMRPPRLPRPRPRPNMDPRP, the “shrunken log2 fold change” value stood at 0.0442.
For RRIRQRPPRLPRPRPRPDCTPRP the value was 0.0901; for RRIRKRPPRLPRPRPRPLYVPRP, 0.0738; for RRIRRRPPRLPRPRPRPSFTPRP, 0.0475.
Take RRIRMRPPRLPRPRPRPVYYPRP: the “shrunken log2 fold change” value is -0.123.
Then RRIRYRPPRLPRPRPRPSQSPRP, with -0.804; and RRIRSRPPRLPRPRPRPAANPRP, with 0.403.
Consider RRIRVRPPRLPRPRPRPSKHPRP, for which the “shrunken log2 fold change” value is -0.538.
With RRIRHRPPRLPRPRPRPAERPRP, the “shrunken log2 fold change” value was found to be 0.0935.
As to RRIRYRPPRLPRPRPRPHHEPRP, the “shrunken log2 fold change” value was -0.0815.
Take RRIRARPPRLPRPRPRPYHPPRP: the “shrunken log2 fold change” value is -0.482.
Consider RRIRSRPPRLPRPRPRPWAHPRP, for which the “shrunken log2 fold change” value was -0.186.
In the case of RRIRLRPPRLPRPRPRPARIPRP, the “shrunken log2 fold change” value is 0.00509.
On to RRIRWRPPRLPRPRPRPFLDPRP, for which the “shrunken log2 fold change” value is -0.233.
As to RRIRVRPPRLPRPRPRPHPDPRP, the “shrunken log2 fold change” value stood at 0.015.
Then RRIRKRPPRLPRPRPRPKDGPRP, with 0.0893; and RRIRGRPPRLPRPRPRPTFWPRP, with 1.51.
Consider RRIRCRPPRLPRPRPRPPSQPRP, for which the “shrunken log2 fold change” value was determined as 0.355.
In the case of RRIRIRPPRLPRPRPRPKPMPRP, the “shrunken log2 fold change” value is -0.0736.
As for RRIRIRPPRLPRPRPRPYPGPRP, the “shrunken log2 fold change” value is -0.0674.
Consider RRIRHRPPRLPRPRPRPGKDPRP, for which the “shrunken log2 fold change” value was -0.0922.
With RRIRSRPPRLPRPRPRPPNCPRP, the “shrunken log2 fold change” value was determined as 0.231.
For the sequence RRIRKRPPRLPRPRPRPVMVPRP, the “shrunken log2 fold change” value amounted to 0.315.
In the case of RRIRLRPPRLPRPRPRPYYTPRP, the “shrunken log2 fold change” value is -0.76.
Regarding RRIRSRPPRLPRPRPRPNGIPRP, the “shrunken log2 fold change” value was found to be 0.033.
For RRIRPRPPRLPRPRPRPYEFPRP the value was -0.0919; for RRIRRRPPRLPRPRPRPAGGPRP, 0.327; for RRIRHRPPRLPRPRPRPIMAPRP, -0.383.
For RRIRWRPPRLPRPRPRPTDEPRP the value was 0.582.
For RRIRIRPPRLPRPRPRPRWWPRP the value was 0.655; for RRIRSRPPRLPRPRPRPKWAPRP, -0.117.
RRIRNRPPRLPRPRPRPFPSPRP: the “shrunken log2 fold change” value is -0.0692.
As to RRIRVRPPRLPRPRPRPSLVPRP, the “shrunken log2 fold change” value is 0.974.
